Results reported in patent publication US20260193623A1 (METAGENOMI, published 2026).

B1: MG153-4 (enzyme)
chain: MDTSSLMEQILSKENLNEAYLQVVRNKGAAGVDGMSVEELGPYLSENGENIREQMRTRKYKPQPVRRVEIPKPDGGVRNLGVPTVVDRFVQQAVAQVLSPIFEEQFHDHSYGFRPNRCAQQAVLKALEMMNDGHNWIVDIDLAKFFDTVDHDKLMTIFGRTIKDGDVISLVRKFLVSGVMIDDEYEDTIVGTPQGGNISPLLANIMLNELDKELEARGLDFVRYADDLIIMVGSRQAAERVMKSVTRFIENKLGLKVNAEKSRVDKPKGIKYLGFGFYFDSFAKGYKARPHMKAVEKFKEQMKKLTCRSWGVSNTYKVKKLNQLIRGWINYFKIGSMKNLCRKLDAHIRFRLRMCIWKQWKTPKNREKNLIKLGLPRYAAHGISYAKGYARVCRSWNLHISISKERLAKFGLISMEDYYAERRVTC
notes: Group II intron class C RT, expressed in HEK293T cells as a Flag-HA-MCP fusion (expected 67.6 kDa including the tag); not shown: N-terminal Flag-HA-MCP tag
B2: MG153-9 (enzyme)
chain: MESYLTQDRAEPEAGCGANSVSDTEGDGRTVQHDLVEEVVSWSNLEAALKQVVSNRGAPGVDGMTVDELGPWLETNYSELAEKVRNGRYRPNPVRRKEIPKPNGGVRDLGIPTVVDRLLQQAVSQVLMPIYEPSFSDTSYGFRPGRSAHDAIQKAKEYLSEGFGYVVDLDLARFFDTLNQDYLMNILRERVRDKALLELIKRFLRSGVVLPNGLLRETREGSPQGGPLSPLLSNIYLDRFDKLLESRGLRFVRYADDCLVFVRTPRAGERVRESVTRYLEGTLRLRVNQEKTVVGRADQVKFLGFRLYRQKTVGATVHDSSLARFRKEVRRITKRNRGTSLGSVLTELKTFTRGWVGYFRIGLSKSRAEKLDGWIRQRVRQYIFKQWKTLRNRASQLVSLCPDYLRPRPGFTPYSWVRECRRAAFSRSYWKAVNYPVVKRALSNSYLAGLGLYSLSEQLEKWNKGV
notes: Group II intron class C RT, expressed in HEK293T cells as a Flag-HA-MCP fusion (expected 72 kDa including the tag); not shown: N-terminal Flag-HA-MCP tag

Molecular target: the molecule itself
Assay: anti-HA immunoblot of lysates of transfected HEK293T cells; band at 2x the expected size (homodimer)
Method: FIGS. 35A-35C depict protein expression of MG153 GII derived RTs by immunoblots. Cells were transfected with plasmids containing the candidate RTs and protein expression was evaluated by immunoblot, detecting the HA peptide fused to the N termini of the RTs. All lanes were normalized to total protein concentration. White arrows point to bands at 2× the expected molecular size of the protein, which indicate protein dimers. Lanes not relevant for the described experiment in FIGS. 35A and 35B are covered by white boxes. FIG. 35C: Multiple sequence alignment of GII derived RT. The region shown corresponds to positions 196 through 201 of the alignment. The dimerization motif CAQQ (SEQ ID NO: 2267) is highlighted.
In order to understand protein expression and stability of the GII RTs in mammalian cells, immunoblots were performed. Briefly, transfected cells were lysed with RIPA lysis buffer supplemented with protease inhibitors (80 μL per well in a 24 well format). The lysate was centrifuged at 14,000 g for 10 min at 4° C. in order to remove insoluble aggregates. Proteins were quantified using BCA. […] Proteins were detected by using a rabbit HA antibody, using an HRP-based detection method. […] The expression of each protein was quantified and cDNA synthesis activity was normalized to total protein expression: seven MG153 RTs outperformed the TGIRT control (FIG. 36).

Protein	binding result
B1	binds
B2	binds
